Measurements reported in patent US20230242922.

Key:
Experiment in all cases: cell_activity
[1] = test system: T1, AN197 TALEN pair (synthetic construct); details: primary T cells, GCD
T1 sequence: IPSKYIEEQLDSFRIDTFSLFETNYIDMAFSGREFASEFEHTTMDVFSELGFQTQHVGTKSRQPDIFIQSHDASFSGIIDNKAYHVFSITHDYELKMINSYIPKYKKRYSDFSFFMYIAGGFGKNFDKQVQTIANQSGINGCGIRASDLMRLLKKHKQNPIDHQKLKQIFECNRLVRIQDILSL

[2] = test system: T2, AN197 TALEN, purified, mPEG-5K-SH PEGylated (synthetic construct); details: HEK293FT
T2 sequence: T1 sequence

[3] = target: FokI TALEN pair (Flavobacterium okeanokoites) (UniProt P14870); details: by Sanger sequencing
Chain of UniProt P14870 (P14870 384-579): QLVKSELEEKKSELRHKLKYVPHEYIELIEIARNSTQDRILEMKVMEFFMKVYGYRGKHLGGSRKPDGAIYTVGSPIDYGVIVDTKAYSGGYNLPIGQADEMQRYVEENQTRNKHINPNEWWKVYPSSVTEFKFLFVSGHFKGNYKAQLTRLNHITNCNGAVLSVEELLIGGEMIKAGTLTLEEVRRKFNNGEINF

Substance	activity [1] [% editing]	activity [2] [% editing]	activity [3] [% editing]
TIM3 target	> 80	–	–
B2M target	> 80	–	–
PD-1 target	> 80	–	–
AAVS1 locus TALEN target	> 80	< 75	100
LAG3 target	> 80	–	–
